PMC11187536

What was measured:
[1] = biological target: soluble variant surface glycoprotein (sVSG) MITat1.2 (Trypanosoma brucei (endogenous in cell line 13-90)); assay: SEC; Superdex 200 Increase 10/300 GL, 20 mM sodium acetate pH 5.2, 150 mM NaCl, 100 µl sample at 5 mg/ml, 1 ml/min; self-association, dimer
[2] = biological target: soluble variant surface glycoprotein (sVSG) MITat1.2 (Trypanosoma brucei (endogenous in cell line 13-90)); assay: SEC; Superdex 200 Increase 10/300 GL, 50 mM HEPES pH 7.4, 150 mM NaCl, 100 µl sample at 5 mg/ml, 1 ml/min; self-association, dimer

## soluble variant surface glycoprotein (sVSG) MITat1.2 (natural protein)
[1]
  stoichiometry N: 2
[2]
  stoichiometry N: 2
